The record followed here is patent US20150010586A1.

Holding throughout (conditions): remark: other sources report otherwise
One assay addresses HLA-A*0301 (human). As to the kind of experiment: cellular competition assay vs FL-labelled reference peptide on B cells; affinity category (high/good IC50<5 uM, intermediate 5-15 uM, low >15-50 uM).
For another assay, the target named is HLA-A*0101 (human). Described as above.
For the next assay, the target named is HLA-A*1101 (human). The assay is described as above.
The target of a further assay is HLA-A*0201 (human). Kind of assay: HLA-A*0201 peptide stabilization assay; unstable if >50% of complexes lost within 2 h.

Take GTRVRAMAIY [p53 154-163 …]: in the assay with HLA-A*0301 (human), the IC50 is 5 to 15 µM.

As to RAHSSHLKSK [p53 363-372 …], in the assay with HLA-A*0301 (human), the IC50 was 5 to 15 µM.

Molecule RVEGNLRVEY [p53 196-205 …] gave a half-inhibitory concentration (IC50) with HLA-A*0101 (human) of 5 to 15 µM.

As for RAHSSHLK [p53 363-370 RAHSSHLK], the IC50 with HLA-A*1101 (human) was 5 to 15 µM.

RMPEAAPPV [p53 65-73 …] returned a Stability with HLA-A*0201 (human) of 6 h.

In the case of VTCTYSPALNK [p53 122-132 …], the 50% inhibitory concentration (IC50) with HLA-A*0301 (human) was in the range of 5 to 15 µM.

FLHSGTAK [p53 113-120 FLHSGTAK]: the 50% inhibitory concentration (IC50) with HLA-A*0301 (human) fell in the range of 5 to 15 µM.

For FLHSGTAKSV [p53 113-122 …], the Stability with HLA-A*0201 (human) is 6 h.

RTEEENLRK [p53 283-291 …] yielded an IC50 with HLA-A*1101 (human) of 5 to 15 µM.

Molecule VVRRCPHHER [p53 172-181 …] registered a concentration for half-maximal inhibition (IC50) with HLA-A*0301 (human) of 5 to 15 µM.

Regarding GFLHSGTAK [p53 112-120 …], the IC50 with HLA-A*0301 (human) and with HLA-A*1101 (human) was 5 to 15 µM in each case.

The molecule KGQSTSRHK [p53 373-381 …] showed an IC50 with HLA-A*0301 (human) of 5 to 15 µM.

In the case of GLAPPQHLIRV [p53 187-197 …], the Stability with HLA-A*0201 (human) stood at 6 h.

Broadly, the IC50 is the concentration that inhibits the measured activity by half.
